Data as given in patent US20220396632A1 (VERSEAU THERAPEUTICS, published 2022).
Non-standard residues stand in square brackets, D forms with d. No end group written: not given here. *: point of attachment. Biotin = O=C1N[C@H]2[C@H](CS[C@H]2CCCCC(=O)*)N1; sY = N[C@@H](Cc1ccc(OS(=O)(=O)O)cc1)C(=O)O

T1: SulfoTyr C4 peptide (not fully specified; Y4, Y7 and Y9 sulfated (SO3); C-terminal biotin)
T1 construct: also called C4 alpha chain peptide; human sulfotyrosinylated C4 peptide
T1 peptide: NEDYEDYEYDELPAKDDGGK

T2: Recombinant human PSGL-1(ECD)-hFc1 (R&D Systems, Cat. 3345-PS) (human, UniProt Q14242 42-305)
T2 construct: Bought; Gln42-Val295 counted on AAC50061; also called PSGL-1-Fc; PSGL-1-hFc1 chimera; not shown: human IgG1 Fc, Pro100-Lys330
T2 sequence: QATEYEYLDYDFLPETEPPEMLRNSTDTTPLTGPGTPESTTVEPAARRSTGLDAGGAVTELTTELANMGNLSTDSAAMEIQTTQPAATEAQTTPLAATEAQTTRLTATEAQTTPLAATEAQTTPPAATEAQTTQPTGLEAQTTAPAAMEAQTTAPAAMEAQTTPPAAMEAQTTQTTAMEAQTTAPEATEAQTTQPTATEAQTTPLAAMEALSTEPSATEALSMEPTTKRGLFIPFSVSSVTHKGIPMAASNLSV

T3: Human fibrinogen protein (ThermoFisher, RP-43142) (human, UniProt P02671 20-629; P02675 31-491; P02679 27-453, limits assumed, natural sulfotyrosines)
T3 construct: mature; Native dimer with 3 pairs of non-identical chains; also called gamma-fibrinogen; γ fibrinogen protein
T3 sequence (looked up) 1: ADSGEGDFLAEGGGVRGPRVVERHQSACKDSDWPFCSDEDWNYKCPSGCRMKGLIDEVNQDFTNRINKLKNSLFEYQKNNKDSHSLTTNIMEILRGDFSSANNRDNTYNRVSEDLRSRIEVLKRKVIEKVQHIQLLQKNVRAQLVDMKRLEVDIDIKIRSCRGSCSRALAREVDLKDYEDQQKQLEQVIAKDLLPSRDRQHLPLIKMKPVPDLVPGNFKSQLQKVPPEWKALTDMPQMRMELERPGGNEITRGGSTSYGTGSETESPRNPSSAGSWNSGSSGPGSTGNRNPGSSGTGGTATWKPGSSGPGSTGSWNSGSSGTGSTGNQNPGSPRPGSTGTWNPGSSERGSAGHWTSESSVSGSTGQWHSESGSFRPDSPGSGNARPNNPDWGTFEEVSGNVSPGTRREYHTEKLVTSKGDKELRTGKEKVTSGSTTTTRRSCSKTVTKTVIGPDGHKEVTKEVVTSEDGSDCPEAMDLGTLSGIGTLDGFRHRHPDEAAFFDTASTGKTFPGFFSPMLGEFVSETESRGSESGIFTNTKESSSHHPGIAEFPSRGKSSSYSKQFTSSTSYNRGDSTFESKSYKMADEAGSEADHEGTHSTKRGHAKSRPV
T3 sequence (looked up) 2: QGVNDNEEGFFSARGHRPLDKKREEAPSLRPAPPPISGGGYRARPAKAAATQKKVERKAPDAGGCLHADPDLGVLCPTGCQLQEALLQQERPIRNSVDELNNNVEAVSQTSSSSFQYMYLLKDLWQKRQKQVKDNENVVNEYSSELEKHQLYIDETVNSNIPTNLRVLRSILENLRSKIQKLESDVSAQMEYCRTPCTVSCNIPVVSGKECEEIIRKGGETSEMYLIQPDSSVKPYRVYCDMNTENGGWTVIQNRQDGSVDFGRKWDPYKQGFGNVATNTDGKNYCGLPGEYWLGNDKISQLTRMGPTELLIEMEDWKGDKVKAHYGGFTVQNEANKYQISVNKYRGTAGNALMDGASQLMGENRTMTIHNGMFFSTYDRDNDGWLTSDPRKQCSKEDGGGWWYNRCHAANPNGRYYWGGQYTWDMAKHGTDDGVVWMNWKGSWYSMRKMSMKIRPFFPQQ
T3 sequence (looked up) 3: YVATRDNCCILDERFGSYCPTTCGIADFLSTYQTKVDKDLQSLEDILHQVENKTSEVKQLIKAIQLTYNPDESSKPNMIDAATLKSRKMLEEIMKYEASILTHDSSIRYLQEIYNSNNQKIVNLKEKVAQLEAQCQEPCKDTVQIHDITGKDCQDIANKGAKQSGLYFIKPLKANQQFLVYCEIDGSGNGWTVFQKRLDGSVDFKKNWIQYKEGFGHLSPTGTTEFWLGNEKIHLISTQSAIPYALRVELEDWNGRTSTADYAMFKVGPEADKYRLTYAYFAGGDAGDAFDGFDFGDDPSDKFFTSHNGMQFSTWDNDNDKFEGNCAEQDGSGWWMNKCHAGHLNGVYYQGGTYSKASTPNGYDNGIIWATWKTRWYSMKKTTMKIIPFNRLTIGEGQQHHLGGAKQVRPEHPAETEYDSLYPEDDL

T4: SulfoCCK biotin peptide (human)
T4 construct: also called sulfotyrosine CCK peptide
T4 peptide: SHRISDRD[sY]MGWMDFGGK(Biotin)

T5: Sulfotyrosine CCR2b biotin peptide (human)
T5 construct: also called CCR2b peptide
T5 peptide: TTFFD[sY]D[sY]GAPSHGGK(Biotin)

B1: 09C10 (antibody, V domains shown)
VH: EVKLLESGGGLIQPGGSLRLSCAASGFTVSNNYVTWVRQAPGKGLELVSSIYSGGGTYYADSVKGRFTISRDNSKNTVYLQMNSLRADDTAVYYCARNVPVTNFGYWGQGTLVTVSS
VL: DIVMTQSPLSLPVTLGQPASISCRSSQSLVYRDGNTYLNWFQQRPGQSPRRLIYKVSNRDSGVPDRFSGSGSGTDFTLKISRVEAEDVGVYYCMQLTHWPPGFAQGTKLEIK
B2: 09A02 (antibody, IgG4, V domains shown)
VH: EVQLVQSGGGLVKPGGSLRLSCAASGFTFRTAWMSWVRQAPGKGLEWVGRMKSKNDGGTTDYAAPVKGRFTISRDDSRDTVYLQMNSLKTEDTGVYYCATYAAGATVPWGQGTLVTVSS
VL: DIVMTQTPLSAPVTLGQPASISCRSSRSLLQRNGYNYVDWYQQKAGNPPRLLIYLGSRRASGVPDRFSGSGSDKDFTLKISRVEADDVGFYFCKQSLQAPPTFGGGTKIEIT
B3: 16E17 (antibody, V domains shown)
VH: QIQLVQSGPELKKPGETVKISCKASGYAFTTYGMSWVKQAPGKGLKWMGWINTYSGVPKYADDFKGRFAFSLETSASTAYLHINNLKNEDTATYFCGRHYYGSSYFDYWGQGTTLTVSS
VL: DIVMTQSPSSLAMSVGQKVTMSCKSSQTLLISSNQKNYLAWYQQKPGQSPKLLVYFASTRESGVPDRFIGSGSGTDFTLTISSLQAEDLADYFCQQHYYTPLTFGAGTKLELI
notes: From mouse immunisation; only variable domains given
B4: 06A07 (antibody, IgG4, V domains shown)
VH: QVQLVQSGPELKNPGASVKVSCKASGYSFTNFYINWVRQAPGRGLEWVGWISPNNGNTHYARNLQGRVTMTTDTSTNTAYLELKNLRSDDTAIYFCGRSVSMGYWGQGTLVTVSS
VL: LPVLTQPPSVSKGLRQTATLTCTGNSKNVGNQGAAWLQQHQGQPPKLLSYRNNNRPSGISERFSASRSGNTASLTITGLQPEDEADYYCSAWDSSLSAQVFGGGTKLTVL
B5: 43B6 (antibody, V domains shown)
VH: EVQLQQSGPDLVKPGALVKISCKASGYSFTAYYIHWVKQSHGKSLEWIGRVNPNTGGTSYNPKFKGKAILNVDKSSSTAYMELRSLTSEDSAVYYCARSGSPYYRYDDWGQGTTLTVSS
VL: ENVLTQSPAIMSASPGEKVTMTCRASSTVNSTYLHWFQQKSGASPKLWIYGSSNLASGVPARFSGSGSGTSYSLTISSVEAEDAATYYCQQYSGYPLTFGAGTTLELK
notes: Control anti-PSGL-1 mAb, recombinant; only variable domains given; also called 43B3
B6: 18K07 (antibody, V domains shown)
VH: QIQLVQSGPELKKPGETVKISCEASGYTFTTYGMNWVKQAPGKGLKWMGWINTYSGVPTYADDFQGRFAFSVETSATTAYLQINNLKNEDAATYFCARSDDTYYGFAYWGQGTLVTVSA
VL: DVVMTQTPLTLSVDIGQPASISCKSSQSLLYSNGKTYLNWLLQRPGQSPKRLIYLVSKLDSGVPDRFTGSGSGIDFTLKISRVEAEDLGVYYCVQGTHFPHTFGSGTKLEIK
notes: as for B3
B7: 06C04 (antibody, IgG4, V domains shown)
VH: EVQLVESGGGLVQPGGSLRLSCAASGFTFSDHYMDWVRQAPGKGLEWVGRSRNKVKSYTTAYAASVEGRITISRDDSKNSLYLEMNSLKTEDTAVYYCVRVRWGGAFDIWGQGTMVTVSS
VL: QPVLTQPPSASGSPGQSVTISCTGTSSDVGGYNYVSWYQQHPGKAPKLMIYEVSKRPSGVPDRFSGSKSGNTASLTVSGLQAEDEADYYCSSYAGSNNLRVFGGGTKLTVL
B8: 9F9 (antibody, V domains shown)
VH: EVQLVETGGGLVQPKGSLKLSCAASGFTFNTNAMNWVRQAPGKGLEWVARIRSKSNNYATYYADSVKDRFTISRDDTQSMIYLQMNNLKTEDTGMYYCVRGGSYWYFDVWGAGTTVTVSS
VL: DVLMTQTPLSLPVSLGDQASISCRSSQSIVNSNGNTYLEWYLQKPGQSPKLLIYKVSNRFSGVPDRFSGSGSGTDFTLKISRVEAEDLGVYYCFQGSHVPWTFGGGTKLEIK
notes: Control anti-PSGL-1 mAb, recombinant; only variable domains given; also called 9F6
B9: 05E08 (antibody, IgG4, V domains shown)
VH: EVQLVQSGGGVVQPGRSLRLSCAASGFTFSTYAMHWVRQAPGKGLEWVAVISYDGSNKYYADSVKGRFTISRDNSRNTLFLQMNSLRDEDTAVYYCAKRGTMIRGERSLDFWGQGTLVTVSS
VL: AIQMTQSPSFLSASVGDRVTITCRASQGINSWLAWYQQKPGTAPNLLIHAASTLQSGVPSRFSGSRSGTEFTLTISSLQPEDFATYYCQQLQSYPLTFGQGTRLEIK

Key:
[1] = target: T1, SulfoTyr C4 peptide; test: ELISA, 50 nM mAb
Experimental: (§1) Recombinant PSGL-1-hFc1 chimera protein consisting of PSGL-1's extracellular domain (ECD) served as a positive control. […] Primary antibody was added (25 ul per well) in duplicate at 50 nM in assay buffer (blocking buffer containing 0.05% Tween®20) into test and control (just blocked) wells and the plate incubated for 45 min at 37° C.

[2] = target: T2, Recombinant human PSGL-1(ECD)-hFc1 (R&D …); test: ELISA, 50 nM mAb
Experimental: as §1

[3] = target: T6, Human complement C4 protein (Millipore Sigma, Cat. 204886) (human, UniProt P0C0L4 20-675; P0C0L4 680-1446; P0C0L4 1454-1744, limits assumed, natural sulfotyrosines); test: ELISA, 50 nM mAb
T6 construct: mature
Experimental: as §1

[4] = target: T3, Human fibrinogen protein (ThermoFisher, …); test: ELISA, 50 nM mAb
Experimental: as §1

[5] = target: T4, SulfoCCK biotin peptide; test: ELISA, 50 nM mAb
Experimental: as §1

[6] = target: T5, Sulfotyrosine CCR2b biotin peptide; test: ELISA, 50 nM mAb
Experimental: as §1

[7] = target: T2, Recombinant human PSGL-1(ECD)-hFc1 (R&D …); test: blocking ELISA vs P-selectin-Fc
Experimental: A typical selectin blocking ELISA assay involved coating high binding half-well plates (Corning, Cat. #3690) with 2.5 ug/mL/25 ul per well of recombinant PSGL-1-Fc protein (R&D Systems, Cat #3345-PS) in PBS, pH 7.4, overnight at 4° C. […] Antibody (test and controls) was serially diluted (25 ul/well) in duplicate in assay buffer (3% BSA in wash buffer) into appropriate wells and the plate incubated for 45 min at 37° C. […] The plate was washed ×3 and HRP-conjugated streptavidin was added in assay buffer [25 ul per well; (Jackson Immunoresearch, Cat. #016-030-084)] and the plate incubated for 45 min at 37° C. […] For each antibody, an IC50 value was determined from sigmoidal fitted titration curves.

T6 sequence (P0C0L4 20-675 limits assumed, form in doubt, chain 1 of 3): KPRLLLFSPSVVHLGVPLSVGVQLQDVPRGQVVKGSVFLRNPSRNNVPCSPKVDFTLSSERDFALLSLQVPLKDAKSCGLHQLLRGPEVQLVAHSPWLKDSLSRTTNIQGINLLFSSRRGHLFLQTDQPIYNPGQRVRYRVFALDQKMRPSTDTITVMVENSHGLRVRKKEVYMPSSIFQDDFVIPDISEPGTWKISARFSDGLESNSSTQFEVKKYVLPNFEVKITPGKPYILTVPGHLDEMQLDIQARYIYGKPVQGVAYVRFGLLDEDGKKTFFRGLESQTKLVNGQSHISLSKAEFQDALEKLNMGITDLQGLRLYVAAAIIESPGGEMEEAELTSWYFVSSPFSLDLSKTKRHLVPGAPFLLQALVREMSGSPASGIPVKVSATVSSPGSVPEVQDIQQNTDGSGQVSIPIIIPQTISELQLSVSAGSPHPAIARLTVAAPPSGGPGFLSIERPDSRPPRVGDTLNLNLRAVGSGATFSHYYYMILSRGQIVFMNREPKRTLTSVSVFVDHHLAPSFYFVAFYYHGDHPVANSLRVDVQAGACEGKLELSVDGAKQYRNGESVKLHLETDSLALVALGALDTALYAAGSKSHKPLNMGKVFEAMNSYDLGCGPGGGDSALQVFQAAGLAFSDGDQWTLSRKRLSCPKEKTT
T6 sequence (P0C0L4 680-1446 limits assumed, form in doubt, chain 2 of 3): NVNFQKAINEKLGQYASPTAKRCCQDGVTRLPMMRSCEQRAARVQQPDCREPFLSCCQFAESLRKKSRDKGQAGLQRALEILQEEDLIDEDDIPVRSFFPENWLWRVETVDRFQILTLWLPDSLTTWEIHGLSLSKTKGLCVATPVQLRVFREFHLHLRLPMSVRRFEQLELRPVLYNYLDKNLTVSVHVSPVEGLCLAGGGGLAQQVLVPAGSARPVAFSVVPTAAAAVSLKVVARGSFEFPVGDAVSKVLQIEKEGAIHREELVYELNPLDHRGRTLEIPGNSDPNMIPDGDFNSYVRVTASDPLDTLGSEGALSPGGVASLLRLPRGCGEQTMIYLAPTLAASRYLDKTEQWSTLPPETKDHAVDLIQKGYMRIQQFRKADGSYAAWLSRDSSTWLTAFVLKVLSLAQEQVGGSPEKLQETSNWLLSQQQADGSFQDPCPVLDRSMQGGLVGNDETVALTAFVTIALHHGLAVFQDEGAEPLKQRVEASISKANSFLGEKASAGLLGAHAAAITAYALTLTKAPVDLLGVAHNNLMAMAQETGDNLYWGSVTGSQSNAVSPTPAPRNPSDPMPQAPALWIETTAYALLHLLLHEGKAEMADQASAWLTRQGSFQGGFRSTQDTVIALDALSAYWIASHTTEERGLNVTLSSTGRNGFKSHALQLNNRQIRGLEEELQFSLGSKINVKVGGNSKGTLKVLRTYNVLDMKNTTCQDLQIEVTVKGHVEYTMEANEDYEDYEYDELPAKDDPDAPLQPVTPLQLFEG
T6 sequence (P0C0L4 1454-1744 limits assumed, form in doubt, chain 3 of 3): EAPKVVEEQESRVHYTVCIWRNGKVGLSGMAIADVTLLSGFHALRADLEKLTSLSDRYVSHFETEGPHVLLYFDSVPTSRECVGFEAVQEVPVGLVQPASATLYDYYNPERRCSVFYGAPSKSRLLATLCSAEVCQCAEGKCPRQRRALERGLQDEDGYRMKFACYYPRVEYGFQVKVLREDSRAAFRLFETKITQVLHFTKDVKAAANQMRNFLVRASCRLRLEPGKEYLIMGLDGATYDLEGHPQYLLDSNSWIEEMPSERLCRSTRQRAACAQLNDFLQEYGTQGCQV

| Binder | binding normalized to PSGL-1 [1] | A450nm [2] [A450nm] | binding normalized to PSGL-1 [3] | binding normalized to PSGL-1 [4] | binding normalized to PSGL-1 [5] | binding normalized to PSGL-1 [6] | % max Block [7] [%] | IC50 [7] [nM] |
| --- | --- | --- | --- | --- | --- | --- | --- | --- |
| B1 | 1.15 | 2.16 | 0.88 | 0.61 | 0.75 | 1.23 | – | – |
| B2 | 1 | 2.51 | 0.56 | 0.29 | 1.1 | 0.93 | – | – |
| B3 | – | – | – | – | – | – | 0 | – |
| B4 | 0.63 | 2.51 | 0.57 | 0.12 | 0.65 | 0.43 | – | – |
| B5 | – | – | – | – | – | – | 100 | 8 |
| B6 | – | – | – | – | – | – | 0 | – |
| B7 | 0.94 | 2.22 | 1.1 | 0.51 | 0.06 | 0.23 | – | – |
| B8 | – | – | – | – | – | – | 100 | 10 |
| B9 | 1 | 2.46 | 1.04 | 0.44 | 0.85 | 0.85 | – | – |
